The record followed here is publication PMC6400067.

The experiment addresses phosphoenolpyruvate carboxylase (Ppc; cce_3822) (Cyanothece ATCC 51142 (endogenous in the cells)). Put plainly: SEC. Background: In gel filtration, larger molecules generally elute earlier.

“phosphoenolpyruvate carboxylase (Ppc; cce_3822) (enzyme)”: the Rapp (Mapp / Mmono) was 4.6.
